Results on two molecules are retold here after patent US20150110787A1 (SAMSUNG ELECTRONICS, published 2015).

Test [1] concerns the target T1, human VEGF-C polypeptide (R&D Systems; Accession # P49767) (human, UniProt P49767 103-227, limits assumed).
T1 construct: Bought protein; also called hVEGF-C; Recombinant VEGF-C protein (R&D Systems)
T1 sequence (looked up): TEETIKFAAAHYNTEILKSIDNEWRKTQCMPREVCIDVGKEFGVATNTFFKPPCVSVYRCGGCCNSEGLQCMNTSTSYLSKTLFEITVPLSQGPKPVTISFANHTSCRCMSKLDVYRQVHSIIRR
In words: SPR, BIAcore T100; antibody captured on anti-human Fc antibody on a CM5 chip, recombinant VEGF-C flowed from 200 nM. As to the method:
To accurately measure the affinity of the anti-VEGF-C antibody to its antigen, VEGF-C, Surface Plasmon Resonance (SPR) method was conducted using BIAcore T100 (GE Healthcare). The SPR method is based on a principle that the refractive index of light passing through a sensor chip varied depending on the condition of the substance coated on the sensor chip. If an antibody or an antigen is flowed on the chip which is coated with an antigen or an antibody, the binding between the antigen and the antibody leads to change in refractive index, and Kd value can be calculated based on the refractive index.
25 μg/ml of anti-human Fc antibody (Sigma) was fixed on CM5 sensor chip (GE Healthcare) using pH 5.0 sodium acetate solution and amine coupling kit (GE Healthcare). 2 μg/ml of the anti-VEGF-C antibody obtained in Example 2 was added on the chip to be captured.
Recombinant VEGF-C protein (R&D Systems) was serially diluted with HBS-P (GE-Health) solution starting from the concentration of 200 nM and flowed on the chip, leading to binding (on) to and dissociating (off) from the antibody, thereby measuring the antigen-antibody affinity.

For test [2], the target named is T1, human VEGF-C polypeptide (R&D Systems; …). The experiment in a line: ELISA on coated human VEGF-C (1 ug/ml), anti-HA-HRP detection; 50% binding concentration, given as Kd. As to the method: ELISA for verifying the binding affinity of the anti-VEGF-C antibody in scFv form purified in Example 2 to its antigen was carried out. MaxiSorp™ flat-bottom plate (Nunc) of 96-wells was coated with 1 μg/ml of human VEGF-C(R&D Systems) for 16 hours. The plate was then washed 5 times with phosphate buffer saline (PBS) supplemented with 0.05%(v/v) Tween-20, and then blocked with PBS supplemented with 1%(v/v) bovine serum albumin (BSA; Sigma) at room temperature for 2 hours. The anti-VEGF-C antibody in scFv form purified in Example 2 was added to each well of the plate and was incubated at room temperature for 2 hours.
The plate was washed 5 times with PBS supplemented with 0.05% (v/v) Tween-20. HRP-conjugated anti-HA antibody (HA-probe Antibody (F-7) HRP conjugated) (Santacruz) diluted with PBS supplemented with 1%(v/v) BSA was added at the dilution ratio of 1:1,000 (v/v) and was incubated at room temperature for 1 hour. The reacted well was washed 5 times with PBS supplemented with 0.1%(v/v) Tween-20. Finally, tetramethylbenzidine (TMB) substrate (Cell Signal) was added to each well of the plate at the amount of 100 μl to induce coloring reaction at room temperature for 3 minutes. Then, the reaction was stopped with 50 μl of 5N H₂SO₄ solution, and OD450 value was measured on plate reader (Molecular Devices).
Background: In an ELISA, binding on a coated surface is turned into a signal by an enzyme label.

The target in test [3] is T2, FLAG-tagged human VEGF-C (Accession # P49767) (human, UniProt P49767 112-227, limits assumed).
T2 construct: not shown: FLAG tag
T2 sequence (looked up): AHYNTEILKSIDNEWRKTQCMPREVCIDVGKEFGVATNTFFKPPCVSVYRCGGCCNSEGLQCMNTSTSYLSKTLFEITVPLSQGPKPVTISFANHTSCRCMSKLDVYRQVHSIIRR
In words: competitive ELISA: human VEGR-R3-Fc coated, 200 ng/ml FLAG-tagged human VEGF-C plus scFv (1-1000 nM), anti-FLAG-HRP; competitor VEGR-R3-Fc. The protocol:
To examine the effect of the anti-VEGF-C antibody purified in Example 2 on the inhibition of VEGF-C:VEGR-R3 binding, a competitive ELISA, which is used for verification of molecular interaction, was performed. MaxiSorp™ flat-bottom plate (Nunc) of 96-wells was coated with […] of human VEGR-R3-Fc (R&D Systems. Accession No. P35916) which is a fusion protein composed of human VEGR-R3 and Fc of human IgG1. Thereafter, the plate was washed 5 times with phosphate buffer saline (PBS) supplemented with 0.05%(v/v) Tween-20, and then blocked with PBS supplemented with 1%(v/v) bovine serum albumin (BSA; Sigma) at room temperature for 2 hours.
To perform the VEGF-C:VEGR-R3 neutralization ELISA, the anti-VEGF-C antibody (concentration: 1 nM, 10 nM, 100 nM, or 1000 nM) purified in Example 2 was added to each well coated with the human VEGR-R3-Fc, together with a mixture of 1%(v/v) BSA and 200 ng/ml of FLAG-tagged human VEGF-C (Accession # P49767), and incubated at room temperature for 2 hours. Thereafter, the plate was washed 5 times with PBS supplemented with 0.05% (v/v) Tween-20. […] Then, the reaction was stopped by addition of 50 μl of 5N H₂SO₄ solution, and OD450 value was measured using plate reader (Molecular Devices).

For test [4], the target named is T2, FLAG-tagged human VEGF-C (Accession # …). In words: competitive ELISA: human VEGR-R3-Fc coated, 200 ng/ml FLAG-tagged human VEGF-C plus IgG (1-1000 nM), anti-FLAG-HRP; competitor VEGR-R3-Fc. As to the method: MaxiSorp™ flat-bottom plate (Nunc) of 96-wells was coated with […] of human VEGR-R3-Fc (R&D Systems. Accession No. P35916) which is a protein produced by coupling human VEGR-R3 with Fc of human IgG1. Thereafter, the plate was washed 5 times with phosphate buffer saline (PBS) supplemented with 0.05%(v/v) Tween-20, and then blocked with PBS supplemented with 1%(v/v) bovine serum albumin (BSA; Sigma) at room temperature for 2 hours.
For performing the VEGF-R3:VEGF-C neutralization ELISA, the anti-VEGF-C antibody (concentration: 1 nM, 10 nM, 100 nM, or 1000 nM) in IgG form purified in Example 6 was added to each well of the human VEGR-R3-Fc coated plate, together with a mixture of 1%(v/v) BSA and 200 ng/ml of FLAG-tagged human VEGF-C (Accession # P49767), and then, the plate was reacted at room temperature for 2 hours. Thereafter, the plate was washed 5 times with PBS supplemented with 0.05% (v/v) Tween-20. HRP-conjugated anti-FLAG antibody (SIGMA) was diluted with PBS supplemented with 1%(v/v) BSA at the dilution ratio of 1:5,000 (v/v), and added to each well in the amount of 100 μl, to react at room temperature for 1 hour. The reacted well was washed 5 times with PBS supplemented with 0.1%(v/v) Tween-20. […] Then, the reaction was stopped with 50 μl of 5N H₂SO₄ solution, and OD450 value was measured on plate reader (Molecular Devices).

B1: SAIT-VEGFC-AB-4A2, anti-VEGF-C antibody in scFv form purified in Example 2 (scFv, V domains shown)
VH: EVQLLESGGGLVQPGGSLRLSCAASGFTFSSYDMSWVRQAPGKGLEWVSAISYDNGSTYYADSVKGRFTISRDNSKNTLYLQMNSLRAEDTAVYYCARDPYLARLNTFDYWGQGTLVTVSS
VL: QSVLTQPPSASGTPGQRVTISCSGSSSNIGSNNVSWYQQLPGTAPKLLIYYNSHRPSGVPDRFSGSKSGTSASLAISGLRSEDEADYYCATWDSSLNGYVFGGGTKLTVL
notes: Expressed in the E. coli periplasm and partially purified on Ni-NTA; also called anti-VEGF-C scFv antibody
Consider B1, for which, in test [1], the Kd is 0.345 nM, the koff was 0.00258 s⁻¹ and the kon stood at 7.45e+06 M⁻¹ s⁻¹. Besides, in test [2], the Kd worked out at 26.2 nM. The 50% inhibitory concentration (IC50) in test [3] came to 33.4 nM.

B2: SAIT-VEGFC-AB-4A2, anti-VEGF-C antibody in IgG form purified in Example 6 (antibody, V domains shown)
VH: B1 VH
VL: QSVLTQPPSASGTPGQRVTISCSGSSSNIGSNNVSWYQQLPGTAPKLLIYYNSHRPSGVPDRFSGSKSGTSASLAISGLRSEDEADYYCATWDSSLNGYVFGGGTKLT
notes: VH was cloned into pOPTI-VAC, which carries the human IgG1 constant region and Fc; Expressed in 293-F cells and purified on Protein A
With B2, the concentration for half-maximal inhibition (IC50) in test [4] came to 9.2 nM.

One may read the Kd as the concentration at which binding is half-saturated. A word on the koff: it is a measure of how fast the partners let go of each other. By kon is commonly meant the second-order rate constant of association. In general, IC50 refers to the concentration at which inhibition is half-maximal.
